Measurements taken from article PMC2891831, “Insight into the Mechanisms of Adenovirus Capsid Disassembly from Studies of Defensin Neutralization” (PLoS Pathogens, 2010).

Legend:
[1] = target: Ad5.eGFP, replication-defective HAdV-5 vector (virus particle) (human adenovirus 5 (HAdV-5)) (UniProt P04133); assay: co-sedimentation; equilibrium-binding assay; HD5 serially diluted in PBS and mixed with 5 µg purified virus, 1 h on ice; virus/HD5 complex separated from unbound HD5 by ultracentrifugation on a discontinuous nycodenz gradient (50 mM NaCl, 20 mM HEPES pH 7.4, 4°C); bound HD5 quantified after SDS-PAGE (Deep Purple stain) against a standard curve; apparent affinity, no estimate of non-specific binding
[2] = target: HAdV-51p (virus particle) (human adenovirus 51 (HAdV-51p)); assay: co-sedimentation; as a1 but one concentration, 20 µM HD5; HD5 bound expressed as percent of HD5 bound to HAdV-5 in parallel samples
[3] = target: HAdV-19c (virus particle) (human adenovirus 19c (HAdV-19c)); assay: as above
[4] = target: HAdV-7p (virus particle) (human adenovirus 7 (HAdV-7p)); assay: as above
[5] = target: HAdV-25p (virus particle) (human adenovirus 25 (HAdV-25p)); assay: as above

human alpha-defensin HD5 (peptide) was tested, and the Kd [1] was 14.5 µM, the stoichiometry N (HD5 molecules per virus particle) [1] was 2750 and the percent of the amount of HD5 bound to HAdV-5 [2] was 24.6%. For the same substance, the percent of the amount of HD5 bound to HAdV-5 [3] was 32.5%, the percent of the amount of HD5 bound to HAdV-5 [4] was 69.3% and the percent of the amount of HD5 bound to HAdV-5 [5] was 3.3%.
